# The supplement of paper PMC10065799, “High-throughput profiling of sequence recognition by tyrosine kinases and SH2 domains using bacterial peptide display” (eLife, 2023)
# Test system: AncSZ
# Assay: phosphorylation enrichment, bacterial display (enrichment ratio); higher = better substrate or ligand; peptides without Tyr show the background
# 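Note: 11-residue human phosphosite peptides and single-mutation variants displayed on the E. coli surface, counted by deep sequencing, each peptide's frequency after selection divided by its frequency in the unselected input library; frequency after pTyr selection over input frequency; kinase dosed for 20-30% of maximal phosphorylation in three min.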
row,Sequence,phosphorylation enrichment
1,VVEDGYEFFAK [PPP1CB_Y254],1.41
2,GHLYAYDWISI [BEST1_Y227],1.98
3,SIVEDYRPPFF [ACVRL1_Y421_G416S_YF],1.01
4,IRQGHYESLKE [MTR_Y921_D919G],0.573
5,SDLTDYLMKIL [ACTA1_Y190_R185S],1.14
6,LDLSYYHTSSS [EMD_Y182_P183H],0.929
7,CTTIHYNYVCN [TP53_Y234_M237V],0.904
8,KVKPIYFHTQG [AR_Y916],0.645
9,MENFIYESMRY [CYP19A1_Y361],1.23
10,LNPDGYKKAFE [CPXM2_Y427_E428K_YF],1.02
11,FSPPYYHRNCM [HGD_Y334_R330S],0.807
12,HNGVSYYINLC [IGF2R_Y2024],1.43
13,LNPFIYSLRNR [OR1A1_Y288],1.46
14,FGSLLYKFAFK [FANCD2_Y458_YF],0.91
15,NIISFYLSRDP [CTSD_Y232_F229I],1.18
16,DDERGYRRVRC [GIGYF2_Y268_S273C],0.75
17,DKNSSYFADWF [TUBB8_Y340_L345F],0.992
18,KGYRGYSYDDI [TMEM230_Y110],0.756
19,RGVTHYILQTF [SLC39A4_Y359],1.09

# Target: EPHB1 (UniProt P54762)
# Sequence (P54762 whole entry, looked up): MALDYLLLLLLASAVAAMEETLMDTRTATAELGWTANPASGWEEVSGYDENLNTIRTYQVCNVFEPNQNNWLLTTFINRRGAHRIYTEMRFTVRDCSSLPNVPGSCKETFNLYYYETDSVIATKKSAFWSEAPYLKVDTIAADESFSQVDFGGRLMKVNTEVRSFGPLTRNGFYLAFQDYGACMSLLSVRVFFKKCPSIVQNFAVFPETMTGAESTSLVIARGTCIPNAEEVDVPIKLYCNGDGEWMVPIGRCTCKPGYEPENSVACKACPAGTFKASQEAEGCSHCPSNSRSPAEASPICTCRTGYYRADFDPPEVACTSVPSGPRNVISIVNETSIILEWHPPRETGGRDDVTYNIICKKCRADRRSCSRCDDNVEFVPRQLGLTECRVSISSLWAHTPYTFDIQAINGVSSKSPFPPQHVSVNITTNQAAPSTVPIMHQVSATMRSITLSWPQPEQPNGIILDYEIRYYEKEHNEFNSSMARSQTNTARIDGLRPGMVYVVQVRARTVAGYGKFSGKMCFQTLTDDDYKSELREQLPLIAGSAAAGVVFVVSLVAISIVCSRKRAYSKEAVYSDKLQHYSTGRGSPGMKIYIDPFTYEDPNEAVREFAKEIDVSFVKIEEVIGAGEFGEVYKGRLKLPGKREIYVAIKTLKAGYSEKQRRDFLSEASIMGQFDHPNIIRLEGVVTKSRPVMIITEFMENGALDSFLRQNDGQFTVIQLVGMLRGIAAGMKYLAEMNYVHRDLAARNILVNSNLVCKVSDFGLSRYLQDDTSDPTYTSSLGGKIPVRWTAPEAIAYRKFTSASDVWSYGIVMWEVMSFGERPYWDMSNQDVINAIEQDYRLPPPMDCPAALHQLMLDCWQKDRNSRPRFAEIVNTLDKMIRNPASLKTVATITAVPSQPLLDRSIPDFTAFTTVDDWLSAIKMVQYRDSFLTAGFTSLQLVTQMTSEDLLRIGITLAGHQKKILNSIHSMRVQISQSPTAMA
# Assay: as above
row,Sequence,phosphorylation enrichment
1,VVEDGYEFFAK [PPP1CB_Y254],0.473
2,GHLYAYDWISI [BEST1_Y227],6.51
3,SIVEDYRPPFF [ACVRL1_Y421_G416S_YF],0.578
4,IRQGHYESLKE [MTR_Y921_D919G],0.392
5,SDLTDYLMKIL [ACTA1_Y190_R185S],0.578
6,LDLSYYHTSSS [EMD_Y182_P183H],0.516
7,CTTIHYNYVCN [TP53_Y234_M237V],0.616
8,KVKPIYFHTQG [AR_Y916],0.358
9,MENFIYESMRY [CYP19A1_Y361],5.46
10,LNPDGYKKAFE [CPXM2_Y427_E428K_YF],0.727
11,FSPPYYHRNCM [HGD_Y334_R330S],0.558
12,HNGVSYYINLC [IGF2R_Y2024],0.805
13,LNPFIYSLRNR [OR1A1_Y288],0.437
14,FGSLLYKFAFK [FANCD2_Y458_YF],0.464
15,NIISFYLSRDP [CTSD_Y232_F229I],0.529
16,DDERGYRRVRC [GIGYF2_Y268_S273C],0.519
17,DKNSSYFADWF [TUBB8_Y340_L345F],0.676
18,KGYRGYSYDDI [TMEM230_Y110],0.407
19,RGVTHYILQTF [SLC39A4_Y359],0.394

# Target: EPHB2 (UniProt P29323)
# Sequence (P29323 whole entry, looked up): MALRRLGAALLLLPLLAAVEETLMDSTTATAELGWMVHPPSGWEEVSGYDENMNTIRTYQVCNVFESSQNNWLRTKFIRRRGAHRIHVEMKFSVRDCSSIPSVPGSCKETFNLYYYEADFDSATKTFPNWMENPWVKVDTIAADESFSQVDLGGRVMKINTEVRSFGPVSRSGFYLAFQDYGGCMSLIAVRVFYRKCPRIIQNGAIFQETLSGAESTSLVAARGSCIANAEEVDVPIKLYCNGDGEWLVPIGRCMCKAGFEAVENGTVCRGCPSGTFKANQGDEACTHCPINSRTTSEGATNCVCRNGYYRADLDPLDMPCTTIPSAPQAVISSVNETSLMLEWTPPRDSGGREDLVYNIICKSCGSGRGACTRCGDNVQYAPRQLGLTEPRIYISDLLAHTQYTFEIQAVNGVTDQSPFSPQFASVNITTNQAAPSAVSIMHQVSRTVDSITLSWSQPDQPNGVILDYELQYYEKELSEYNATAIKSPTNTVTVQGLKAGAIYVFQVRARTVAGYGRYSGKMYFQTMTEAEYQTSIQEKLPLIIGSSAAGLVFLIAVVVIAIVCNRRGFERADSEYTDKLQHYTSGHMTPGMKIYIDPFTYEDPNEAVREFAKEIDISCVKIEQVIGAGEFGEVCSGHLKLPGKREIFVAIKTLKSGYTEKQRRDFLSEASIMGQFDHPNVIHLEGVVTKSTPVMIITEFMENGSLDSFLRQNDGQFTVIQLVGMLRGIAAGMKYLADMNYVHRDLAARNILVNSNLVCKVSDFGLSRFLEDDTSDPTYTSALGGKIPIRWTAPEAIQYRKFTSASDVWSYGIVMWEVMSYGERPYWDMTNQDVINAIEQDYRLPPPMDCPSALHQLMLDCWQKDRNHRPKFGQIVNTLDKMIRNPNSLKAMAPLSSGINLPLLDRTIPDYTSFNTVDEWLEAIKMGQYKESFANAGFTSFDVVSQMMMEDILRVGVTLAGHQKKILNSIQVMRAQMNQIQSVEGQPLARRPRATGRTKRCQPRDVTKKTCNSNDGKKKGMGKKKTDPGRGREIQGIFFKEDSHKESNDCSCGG
# Assay: as above
row,Sequence,phosphorylation enrichment
1,VVEDGYEFFAK [PPP1CB_Y254],0.792
2,GHLYAYDWISI [BEST1_Y227],5.04
3,SIVEDYRPPFF [ACVRL1_Y421_G416S_YF],0.46
4,IRQGHYESLKE [MTR_Y921_D919G],0.34
5,SDLTDYLMKIL [ACTA1_Y190_R185S],0.648
6,LDLSYYHTSSS [EMD_Y182_P183H],0.614
7,CTTIHYNYVCN [TP53_Y234_M237V],0.645
8,KVKPIYFHTQG [AR_Y916],0.422
9,MENFIYESMRY [CYP19A1_Y361],3.32
10,LNPDGYKKAFE [CPXM2_Y427_E428K_YF],0.793
11,FSPPYYHRNCM [HGD_Y334_R330S],0.664
12,HNGVSYYINLC [IGF2R_Y2024],0.541
13,LNPFIYSLRNR [OR1A1_Y288],0.618
14,FGSLLYKFAFK [FANCD2_Y458_YF],0.445
15,NIISFYLSRDP [CTSD_Y232_F229I],0.498
16,DDERGYRRVRC [GIGYF2_Y268_S273C],0.551
17,DKNSSYFADWF [TUBB8_Y340_L345F],0.507
18,KGYRGYSYDDI [TMEM230_Y110],0.424
19,RGVTHYILQTF [SLC39A4_Y359],0.703

# Target: FGFR1 (UniProt P11362)
# Sequence (P11362 whole entry, looked up): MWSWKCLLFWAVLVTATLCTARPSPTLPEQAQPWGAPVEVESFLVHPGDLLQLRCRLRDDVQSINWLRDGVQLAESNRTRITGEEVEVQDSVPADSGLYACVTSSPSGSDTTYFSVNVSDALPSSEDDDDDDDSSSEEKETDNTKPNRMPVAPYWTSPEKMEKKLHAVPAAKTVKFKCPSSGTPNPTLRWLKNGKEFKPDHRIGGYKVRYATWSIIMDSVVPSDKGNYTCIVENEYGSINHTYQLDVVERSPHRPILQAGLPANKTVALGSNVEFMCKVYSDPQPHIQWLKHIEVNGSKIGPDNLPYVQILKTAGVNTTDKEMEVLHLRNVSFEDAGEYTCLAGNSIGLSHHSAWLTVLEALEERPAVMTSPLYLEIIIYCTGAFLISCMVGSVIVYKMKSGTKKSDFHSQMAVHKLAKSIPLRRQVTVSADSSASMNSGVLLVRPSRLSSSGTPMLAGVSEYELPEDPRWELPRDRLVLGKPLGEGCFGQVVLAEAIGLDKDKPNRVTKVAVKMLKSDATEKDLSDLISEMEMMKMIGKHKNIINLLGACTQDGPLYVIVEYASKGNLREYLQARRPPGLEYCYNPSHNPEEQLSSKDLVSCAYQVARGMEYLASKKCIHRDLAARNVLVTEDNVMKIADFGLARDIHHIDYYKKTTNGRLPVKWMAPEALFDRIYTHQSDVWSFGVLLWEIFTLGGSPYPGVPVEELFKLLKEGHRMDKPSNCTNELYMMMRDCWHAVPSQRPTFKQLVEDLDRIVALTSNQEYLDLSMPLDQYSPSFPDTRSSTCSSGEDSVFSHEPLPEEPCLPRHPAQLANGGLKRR
# Assay: as above
row,Sequence,phosphorylation enrichment
1,VVEDGYEFFAK [PPP1CB_Y254],0.518
2,GHLYAYDWISI [BEST1_Y227],8.88
3,SIVEDYRPPFF [ACVRL1_Y421_G416S_YF],0.435
4,IRQGHYESLKE [MTR_Y921_D919G],0.419
5,SDLTDYLMKIL [ACTA1_Y190_R185S],0.532
6,LDLSYYHTSSS [EMD_Y182_P183H],1.11
7,CTTIHYNYVCN [TP53_Y234_M237V],0.685
8,KVKPIYFHTQG [AR_Y916],0.468
9,MENFIYESMRY [CYP19A1_Y361],0.569
10,LNPDGYKKAFE [CPXM2_Y427_E428K_YF],0.866
11,FSPPYYHRNCM [HGD_Y334_R330S],0.66
12,HNGVSYYINLC [IGF2R_Y2024],0.605
13,LNPFIYSLRNR [OR1A1_Y288],0.891
14,FGSLLYKFAFK [FANCD2_Y458_YF],0.527
15,NIISFYLSRDP [CTSD_Y232_F229I],0.516
16,DDERGYRRVRC [GIGYF2_Y268_S273C],0.533
17,DKNSSYFADWF [TUBB8_Y340_L345F],2.44
18,KGYRGYSYDDI [TMEM230_Y110],0.485
19,RGVTHYILQTF [SLC39A4_Y359],0.664

# Target: FGFR3 (UniProt P22607)
# Sequence (P22607 whole entry, looked up): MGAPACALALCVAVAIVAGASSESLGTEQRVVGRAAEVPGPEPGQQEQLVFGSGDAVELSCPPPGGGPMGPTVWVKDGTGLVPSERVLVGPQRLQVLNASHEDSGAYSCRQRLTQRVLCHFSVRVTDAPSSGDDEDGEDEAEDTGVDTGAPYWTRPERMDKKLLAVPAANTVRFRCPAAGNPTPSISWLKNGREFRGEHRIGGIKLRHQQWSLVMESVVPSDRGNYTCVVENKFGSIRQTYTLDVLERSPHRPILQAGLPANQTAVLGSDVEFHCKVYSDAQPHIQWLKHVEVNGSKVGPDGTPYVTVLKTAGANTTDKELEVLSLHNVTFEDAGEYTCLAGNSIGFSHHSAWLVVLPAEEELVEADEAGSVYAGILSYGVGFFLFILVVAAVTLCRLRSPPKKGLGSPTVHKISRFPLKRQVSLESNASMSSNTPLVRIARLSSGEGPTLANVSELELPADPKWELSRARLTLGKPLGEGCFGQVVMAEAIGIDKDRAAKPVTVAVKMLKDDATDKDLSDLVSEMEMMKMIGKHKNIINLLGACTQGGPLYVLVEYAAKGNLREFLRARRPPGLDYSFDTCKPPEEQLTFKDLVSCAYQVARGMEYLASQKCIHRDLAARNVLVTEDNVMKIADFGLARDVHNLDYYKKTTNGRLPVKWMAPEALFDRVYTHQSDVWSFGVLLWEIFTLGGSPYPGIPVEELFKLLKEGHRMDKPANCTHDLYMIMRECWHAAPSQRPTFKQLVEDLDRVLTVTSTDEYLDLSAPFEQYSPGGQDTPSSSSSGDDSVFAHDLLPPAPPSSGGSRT
# Assay: as above
row,Sequence,phosphorylation enrichment
1,VVEDGYEFFAK [PPP1CB_Y254],0.615
2,GHLYAYDWISI [BEST1_Y227],6.48
3,SIVEDYRPPFF [ACVRL1_Y421_G416S_YF],0.646
4,IRQGHYESLKE [MTR_Y921_D919G],0.567
5,SDLTDYLMKIL [ACTA1_Y190_R185S],0.732
6,LDLSYYHTSSS [EMD_Y182_P183H],1.22
7,CTTIHYNYVCN [TP53_Y234_M237V],0.648
8,KVKPIYFHTQG [AR_Y916],0.507
9,MENFIYESMRY [CYP19A1_Y361],0.728
10,LNPDGYKKAFE [CPXM2_Y427_E428K_YF],0.833
11,FSPPYYHRNCM [HGD_Y334_R330S],0.609
12,HNGVSYYINLC [IGF2R_Y2024],1.1
13,LNPFIYSLRNR [OR1A1_Y288],0.579
14,FGSLLYKFAFK [FANCD2_Y458_YF],0.678
15,NIISFYLSRDP [CTSD_Y232_F229I],0.773
16,DDERGYRRVRC [GIGYF2_Y268_S273C],0.562
17,DKNSSYFADWF [TUBB8_Y340_L345F],1.62
18,KGYRGYSYDDI [TMEM230_Y110],0.509
19,RGVTHYILQTF [SLC39A4_Y359],0.905

# Test system: Fer (mouse)
# Assay: as above
row,Sequence,phosphorylation enrichment
1,VVEDGYEFFAK [PPP1CB_Y254],0.42
2,GHLYAYDWISI [BEST1_Y227],15
3,SIVEDYRPPFF [ACVRL1_Y421_G416S_YF],0.485
4,IRQGHYESLKE [MTR_Y921_D919G],0.652
5,SDLTDYLMKIL [ACTA1_Y190_R185S],0.582
6,LDLSYYHTSSS [EMD_Y182_P183H],0.451
7,CTTIHYNYVCN [TP53_Y234_M237V],0.696
8,KVKPIYFHTQG [AR_Y916],0.28
9,MENFIYESMRY [CYP19A1_Y361],13.1
10,LNPDGYKKAFE [CPXM2_Y427_E428K_YF],0.67
11,FSPPYYHRNCM [HGD_Y334_R330S],0.482
12,HNGVSYYINLC [IGF2R_Y2024],0.577
13,LNPFIYSLRNR [OR1A1_Y288],0.6
14,FGSLLYKFAFK [FANCD2_Y458_YF],0.336
15,NIISFYLSRDP [CTSD_Y232_F229I],0.43
16,DDERGYRRVRC [GIGYF2_Y268_S273C],0.513
17,DKNSSYFADWF [TUBB8_Y340_L345F],0.345
18,KGYRGYSYDDI [TMEM230_Y110],0.393
19,RGVTHYILQTF [SLC39A4_Y359],0.582

# Target: Fes (UniProt P07332)
# Sequence (P07332 whole entry, looked up): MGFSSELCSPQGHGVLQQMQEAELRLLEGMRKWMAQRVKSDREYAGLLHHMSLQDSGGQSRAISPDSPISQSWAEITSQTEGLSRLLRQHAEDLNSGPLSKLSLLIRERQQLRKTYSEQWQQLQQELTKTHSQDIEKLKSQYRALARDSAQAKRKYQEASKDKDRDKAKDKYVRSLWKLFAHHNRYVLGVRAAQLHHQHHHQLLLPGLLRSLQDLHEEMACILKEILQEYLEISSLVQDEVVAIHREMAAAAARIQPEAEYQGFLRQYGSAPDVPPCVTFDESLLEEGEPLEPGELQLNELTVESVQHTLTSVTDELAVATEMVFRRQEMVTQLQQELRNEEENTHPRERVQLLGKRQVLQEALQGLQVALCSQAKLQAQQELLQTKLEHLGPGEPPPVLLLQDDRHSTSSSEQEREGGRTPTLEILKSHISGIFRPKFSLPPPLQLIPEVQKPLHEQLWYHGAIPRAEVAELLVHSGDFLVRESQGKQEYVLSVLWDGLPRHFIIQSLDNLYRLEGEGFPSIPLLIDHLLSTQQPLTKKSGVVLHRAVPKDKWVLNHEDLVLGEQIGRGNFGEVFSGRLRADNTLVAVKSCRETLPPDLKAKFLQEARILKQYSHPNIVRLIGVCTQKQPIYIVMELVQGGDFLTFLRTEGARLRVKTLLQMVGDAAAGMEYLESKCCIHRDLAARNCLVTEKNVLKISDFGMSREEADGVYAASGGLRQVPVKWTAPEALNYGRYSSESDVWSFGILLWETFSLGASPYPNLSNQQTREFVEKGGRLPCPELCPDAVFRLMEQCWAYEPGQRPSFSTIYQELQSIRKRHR
# Assay: as above
row,Sequence,phosphorylation enrichment
1,VVEDGYEFFAK [PPP1CB_Y254],0.988
2,GHLYAYDWISI [BEST1_Y227],3.56
3,SIVEDYRPPFF [ACVRL1_Y421_G416S_YF],1.01
4,IRQGHYESLKE [MTR_Y921_D919G],0.768
5,SDLTDYLMKIL [ACTA1_Y190_R185S],1.22
6,LDLSYYHTSSS [EMD_Y182_P183H],0.977
7,CTTIHYNYVCN [TP53_Y234_M237V],0.949
8,KVKPIYFHTQG [AR_Y916],0.708
9,MENFIYESMRY [CYP19A1_Y361],3.6
10,LNPDGYKKAFE [CPXM2_Y427_E428K_YF],2.1
11,FSPPYYHRNCM [HGD_Y334_R330S],0.957
12,HNGVSYYINLC [IGF2R_Y2024],1.5
13,LNPFIYSLRNR [OR1A1_Y288],1.55
14,FGSLLYKFAFK [FANCD2_Y458_YF],1.09
15,NIISFYLSRDP [CTSD_Y232_F229I],1.27
16,DDERGYRRVRC [GIGYF2_Y268_S273C],0.882
17,DKNSSYFADWF [TUBB8_Y340_L345F],1.01
18,KGYRGYSYDDI [TMEM230_Y110],0.774
19,RGVTHYILQTF [SLC39A4_Y359],1.27

# Target: Fyn (UniProt P06241)
# Sequence (P06241 whole entry, looked up): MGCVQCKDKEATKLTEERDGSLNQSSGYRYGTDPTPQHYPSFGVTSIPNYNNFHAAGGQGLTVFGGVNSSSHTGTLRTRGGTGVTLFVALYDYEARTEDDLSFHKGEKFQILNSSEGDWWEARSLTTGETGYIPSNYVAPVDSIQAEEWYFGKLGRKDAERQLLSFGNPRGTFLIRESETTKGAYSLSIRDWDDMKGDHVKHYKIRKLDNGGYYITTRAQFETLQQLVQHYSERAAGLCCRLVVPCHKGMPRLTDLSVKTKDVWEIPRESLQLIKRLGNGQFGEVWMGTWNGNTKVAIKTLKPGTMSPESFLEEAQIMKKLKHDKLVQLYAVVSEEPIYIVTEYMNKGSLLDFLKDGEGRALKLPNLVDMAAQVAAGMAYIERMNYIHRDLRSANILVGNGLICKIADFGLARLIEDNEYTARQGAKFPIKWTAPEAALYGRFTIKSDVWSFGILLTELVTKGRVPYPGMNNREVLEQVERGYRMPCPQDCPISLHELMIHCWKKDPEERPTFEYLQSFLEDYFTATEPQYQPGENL
# Assay: as above
row,Sequence,phosphorylation enrichment
1,VVEDGYEFFAK [PPP1CB_Y254],0.571
2,GHLYAYDWISI [BEST1_Y227],2.24
3,SIVEDYRPPFF [ACVRL1_Y421_G416S_YF],0.378
4,IRQGHYESLKE [MTR_Y921_D919G],0.466
5,SDLTDYLMKIL [ACTA1_Y190_R185S],0.535
6,LDLSYYHTSSS [EMD_Y182_P183H],0.509
7,CTTIHYNYVCN [TP53_Y234_M237V],0.556
8,KVKPIYFHTQG [AR_Y916],0.371
9,MENFIYESMRY [CYP19A1_Y361],8.43
10,LNPDGYKKAFE [CPXM2_Y427_E428K_YF],0.495
11,FSPPYYHRNCM [HGD_Y334_R330S],0.505
12,HNGVSYYINLC [IGF2R_Y2024],0.581
13,LNPFIYSLRNR [OR1A1_Y288],0.657
14,FGSLLYKFAFK [FANCD2_Y458_YF],0.306
15,NIISFYLSRDP [CTSD_Y232_F229I],0.446
16,DDERGYRRVRC [GIGYF2_Y268_S273C],0.529
17,DKNSSYFADWF [TUBB8_Y340_L345F],0.479
18,KGYRGYSYDDI [TMEM230_Y110],0.425
19,RGVTHYILQTF [SLC39A4_Y359],0.499
